Assay results published in article PMC12616241 (2025).

Experiments:
Test in all cases: SPR
FcγRIIa-R131 = target: FcγRIIa-R131
FcγRIIa-H131 = target: FcγRIIa-H131
[1] = target: FcγRIIIa-V158 (His-tagged recombinant) (human)
[2] = target: FcγRIIIa-F158 (His-tagged recombinant) (human, UniProt P08637 17-208)
FcγRIIIa-F158 (His-tagged recombinant), sequence (P08637 17-208): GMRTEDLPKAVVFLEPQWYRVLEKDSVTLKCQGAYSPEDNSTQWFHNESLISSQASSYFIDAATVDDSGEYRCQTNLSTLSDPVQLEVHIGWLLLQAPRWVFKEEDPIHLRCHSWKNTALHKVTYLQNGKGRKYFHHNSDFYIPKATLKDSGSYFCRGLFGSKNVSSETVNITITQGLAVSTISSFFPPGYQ

FcγRIIIa-V158 (His-tagged recombinant) (human), sequence (chain, as listed by the source): as the sequence (P08637 17-208) above, with F160V counted along it

Kd (FcγRIIa-R131): 1440 nM | Kd (FcγRIIa-H131): 764 nM | Kd [1]: 91.7 nM | Kd [2]: 113 nM
B1: margetuximab (antibody)
chain 1: QVQLQQSGPELVKPGASLKLSCTASGFNIKDTYIHWVKQRPEQGLEWIGRIYPTNGYTRYDPKFQDKATITADTSSNTAYLQVSRLTSEDTAVYYCSRWGGDGFYAMDYWGQGASVTVSS
chain 2: DIVMTQSHKFMSTSVGDRVSITCKASQDVNTAVAWYQQKPGHSPKLLIYSASFRYTGVPDRFTGSRSGTDFTFTISSVQAEDLAVYYCQQHYTTPPTFGGGTKVEIK
